Ends that are not written are not given here.
Key:
[1] = biological target: BRD4 bromodomain 1 (residues 43–180) (human, UniProt O60885 43-180); assay: NMR titration
BRD4 ET domain (600–700) [2] = biological target: T1, BRD4 ET domain (600–700) (human, UniProt O60885 600-700); assay: MST
BRD4 ET domain (600–700) [3] = biological target: T1, BRD4 ET domain (600–700); assay: NMR titration

## SLVK(Ac)PS [monoacetylated SARS-CoV-2 E^K53ac peptide (aa 50–55 of SARS-CoV-2 E)]
[1]
  Kd: > 1000 µM

## SRVK(Ac)NLNSS [monoacetylated SARS-CoV-2 E^K63ac peptide (aa 60–68 of SARS-CoV-2 E)]
[1]
  Kd: 660 µM

## {FAM}-SFYVYSRVKNLN [FAM-SARS-CoV-2 E^55–66 peptide]
BRD4 ET domain (600–700) [2]
  Kd: 50 µM

## KPSFYVYSRVKNLNSSRVPD [SARS-CoV-2 E^53−72 peptide (aa 53–72 of SARS-CoV-2 E)]
BRD4 ET domain (600–700) [3]
  binding result: binds
